Assay results published in patent US20250154215A1, “PHARMACEUTICAL COMPOSITION FOR TREATING COLITIS OR COLORECTAL CANCER COMPRISING COLON-TARGETED S100A8/A9-DERIVED SPECIFIC PEPTIDE” (Industry-University Cooperation Foundation Hanyang …, priority 2023, published 2025).

Columns and labels:
BMDMs = format: cell-based, mouse
Experimental: FIGS. 5A and 5B show the drug-like properties of rCT-S100A8/A9. […] Bacteria-purified 6×His-rCT-S100A8/9, rVehicle or rCT was analyzed by Coomassie staining or IB using αHis (bottom, left). BMDMs were incubated with rVehicle, rCT, or rCT-S100A8/9 for the indicated times and at the indicated concentrations, and then cell viability was measured by MTT assay (bottom, right). […] HLM, human liver microsomes; CYP, cytochrome […], arrival time; AUClast, total area under the plasma concentration-time curve from time 0 to the time of the last measurement; Cmax, maximum plasma concentration;

[1] = design: species or system mice; conditions: mouse, in vivo
Experimental: FIGS. 6A-6D show the effect of rCT-S100A8/A9 peptide on colon targeting. […] Mice were exposed to 3% DSS for six days and evaluated on day 6 (left). For IB with αITGA6, αITGB1, or αActin, multiple organ harvests were used and ITGA6+ or ITGB1+ cell numbers were analyzed through FACS. […] Intraperitoneal administration of rCT-S100A8/9 conjugated with Cy5.5 for one hour and colon harvest. Colon harvests were used for IB including αITGA6, αITGB1, or αActin and ITGA6+ or ITGB1+ cell numbers were analyzed through FACS. […] Mice were treated with 3% DSS for six days and administered 1, 2, or 3 doses of Texas Red conjugated with rCT-S100A8/9. Colons were harvested in a time-dependent manner and analyzed for Texas Red+ cell numbers through FACS. Data is representative of three independent experiments with similar results. Data is shown as the mean±SD of three experiments;
S100A8 or S100A9 peptides or rCT-S100A8/9 was conjugated to Texas Red using the Texas Red® Conjugation Kit (Fast)-Lightning-Link (Abcam) to quantitatively measure cellular uptake in macrophages and pharmacodynamics in a colitis model. Cells were washed thoroughly and quickly with pulse spins and immediately acquired for analysis on FACSCalibur (BD Biosciences, San Jose, CA, USA). Data was plotted using CellQuest software (BD Biosciences) and analyzed using FlowJo software (Tree Star, Ashland, OR, USA). […]

[2] = DSS-induced acute colitis mouse model; format: in vivo, mice; conditions: treatment for three consecutive days
[3] = The results of in vitro plasma stability, microsomal stability, CYP inhibition and PK profile of S100A8/A9 peptides and rCT-S100A8/A9 proteins
Experimental: Table printed on a drawing sheet, Fig. 5B
Title: The results of in vitro plasma stability, microsomal stability, CYP inhibition and PK profile of S100A8/A9 peptides and rCT-S100A8/A9 proteins
The patent's description of the figure: FIGS. 5A and 5B show the drug-like properties of rCT-S100A8/A9. […] Bacteria-purified 6×His-rCT-S100A8/9, rVehicle or rCT was analyzed by Coomassie staining or IB using αHis (bottom, left). BMDMs were incubated with rVehicle, rCT, or rCT-S100A8/9 for the indicated times and at the indicated concentrations, and then cell viability was measured by MTT assay (bottom, right). […] HLM, human liver microsomes; CYP, cytochrome P450. aTmax, arrival time; AUClast, total area under the plasma concentration-time curve from time 0 to the time of the last measurement; Cmax, maximum plasma concentration;
First reader's note: All values were measured after ip dosing of 1 mg/kg in mice (n = 5); the footnote for the raised a is not printed on the sheet, and the title stands once above both tables.

B1: TWYKIAFQRNRKTWYKIAFQRNRKTWYKIAFQRNRKTWYKIAFQRNRKTWYKIAFQRNRKGGFLVIKGGAHKSHKGGITIITFGGGHHGGFLVIKGGAHKSHKGGITIITFGGGHHGGFLVIKGGAHKSHKGGITIITFGGGHHGG (protein)
chain: TWYKIAFQRNRKTWYKIAFQRNRKTWYKIAFQRNRKTWYKIAFQRNRKTWYKIAFQRNRKGGFLVIKGGAHKSHKGGITIITFGGGHHGGFLVIKGGAHKSHKGGITIITFGGGHHGGFLVIKGGAHKSHKGGITIITFGGGHHGG
modifications: N-terminal 6xHis tag
cell viability (BMDMs): no significant effect on cell viability
retained in the colon [1]: 50%
survival rate by treatment frequency [2]: highest survival rate
PK parameters (ip, 1 mg/kg, mice (n = 5))^a | AUClast [3]: 235.82 ± 51.48 ng·h/mL
PK parameters (ip, 1 mg/kg, mice (n = 5))^a | Cmax [3]: 213.12 ± 25.38 ng/mL
PK parameters (ip, 1 mg/kg, mice (n = 5))^a | T1/2 [3]: 1.91 ± 0.42 h
PK parameters (ip, 1 mg/kg, mice (n = 5))^a | Tmax [3]: 0.23 ± 0.0 h
